From paper PMC8406324, “Structural Basis for a Neutralizing Antibody Response Elicited by a Recombinant Hantaan Virus Gn Immunogen” (mBio, 2021) come the findings set out here.

This assay addresses T1, recombinant HTNV Gn ectodomain (residues 18 to 371) (Hantaan virus (Orthohantavirus …)).
T1 construct: also called N-terminal ectodomain of HTNV Gn; soluble HTNV Gn ectodomain
As to the kind of experiment: crystal structure. To be noted: both partners purified.

B1: Fab nnHTN-Gn2 (Fab, V domains shown)
VH: QSLEESGGRLVTPGTPLTLTCTVSGFSLSNYNMQWVRQAPGKGLEWIGIVYTGGVAWYARWAKGRFTISRTSTTVDLKITSPTTEDTATYFCARAYTSNSDIVFDPWGPGTLVTVSS
VL: GQVLTQTPASVSAAVGGTVTIKCQASQSVSTALAWYQQKPGQRPKLLIYLASTLTSGVPSRFKGSGSGTEFTLTISGVECDDAATYYCQQGYSYSNVDNSFGGGTEVVVK
notes: also called Fab nnHTNV-Gn2
As for B1, the binding result was “binds”.

B2: Fab HTN-Gn1 (Fab, V domains shown)
VH: QSLVESGGDLVKPEGSLTLTCTASGFSFSSTHWICWVRQAPGKGLEWIACIYVGNTYDSYYANWAKGRFTISKTSSTTVTLQMTTLTAADTATYFCARSGSVFGVVSLWGPGTLVTVSS
VL: GQVLTQTPASVSEPVEGTVTIKCQASQSINNWLSWYQQRPGQPPKLLIYDASTVASGVSSRFKGSGSGTEFTLTISDLECADAATYACQSYGYGISITDNSAFGGGTEVVVR
notes: also called HTN-Gn1-Fab; HTNV-Gn1-Fab
As for B2, the binding result is listed as “binds”.
